{
  "source": "paper PMC3764190",
  "about": "“Type I-E CRISPR-Cas Systems Discriminate Target from Non-Target DNA through Base Pairing-Independent PAM Recognition”",
  "key": {"[1]": {"target": "T1, Cascade (Type I-E crRNA-guided surveillance complex, crRNA-loaded) (Escherichia coli K12 (expressed in …, UniProt Q46901;P76632;Q46899;Q46898;Q46897 1-502;1-160;2-363;1-224;2-199))", "T1 sequence 1": "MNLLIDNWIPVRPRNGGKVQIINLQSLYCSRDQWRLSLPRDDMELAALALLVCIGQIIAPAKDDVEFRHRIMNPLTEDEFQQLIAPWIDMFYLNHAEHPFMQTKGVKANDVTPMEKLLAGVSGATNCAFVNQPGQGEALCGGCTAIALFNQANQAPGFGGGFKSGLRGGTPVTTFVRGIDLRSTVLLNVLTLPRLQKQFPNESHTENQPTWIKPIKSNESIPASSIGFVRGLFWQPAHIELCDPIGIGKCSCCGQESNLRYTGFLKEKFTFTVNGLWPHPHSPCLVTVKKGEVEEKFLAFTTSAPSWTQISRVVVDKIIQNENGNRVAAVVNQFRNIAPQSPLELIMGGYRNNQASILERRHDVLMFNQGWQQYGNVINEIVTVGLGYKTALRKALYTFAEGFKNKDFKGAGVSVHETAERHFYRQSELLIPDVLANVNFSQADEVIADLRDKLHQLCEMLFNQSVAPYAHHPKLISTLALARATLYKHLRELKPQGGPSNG", "T1 sequence 2": "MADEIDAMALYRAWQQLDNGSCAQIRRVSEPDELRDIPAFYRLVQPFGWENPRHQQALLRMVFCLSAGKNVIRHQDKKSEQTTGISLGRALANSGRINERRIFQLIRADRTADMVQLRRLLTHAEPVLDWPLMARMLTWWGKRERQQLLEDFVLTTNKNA", "T1 sequence 3": "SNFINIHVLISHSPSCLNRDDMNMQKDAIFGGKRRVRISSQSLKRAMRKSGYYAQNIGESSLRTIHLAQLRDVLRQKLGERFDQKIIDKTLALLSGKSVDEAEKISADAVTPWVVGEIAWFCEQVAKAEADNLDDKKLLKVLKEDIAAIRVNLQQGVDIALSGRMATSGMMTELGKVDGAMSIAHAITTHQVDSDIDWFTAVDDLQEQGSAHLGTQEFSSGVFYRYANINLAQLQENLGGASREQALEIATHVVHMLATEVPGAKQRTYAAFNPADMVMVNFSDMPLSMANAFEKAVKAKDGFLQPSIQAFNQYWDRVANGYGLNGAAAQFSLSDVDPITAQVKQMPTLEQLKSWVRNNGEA", "T1 sequence 4": "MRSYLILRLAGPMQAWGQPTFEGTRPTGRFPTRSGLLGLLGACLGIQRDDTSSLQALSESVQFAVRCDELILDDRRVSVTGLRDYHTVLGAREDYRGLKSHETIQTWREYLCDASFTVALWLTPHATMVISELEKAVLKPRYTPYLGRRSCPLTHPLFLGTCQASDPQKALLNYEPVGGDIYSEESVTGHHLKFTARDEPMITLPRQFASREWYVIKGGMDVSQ", "T1 sequence 5": "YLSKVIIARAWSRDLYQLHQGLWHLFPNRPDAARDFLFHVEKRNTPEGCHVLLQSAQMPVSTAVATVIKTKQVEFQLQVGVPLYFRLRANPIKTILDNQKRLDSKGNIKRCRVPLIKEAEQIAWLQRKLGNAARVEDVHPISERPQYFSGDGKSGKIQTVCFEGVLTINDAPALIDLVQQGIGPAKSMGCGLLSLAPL", "experiment": "EMSA; g8C-2A crRNA; slightly reduced affinity; EMSA with 32P-labelled dsDNA; buffer, salt, pH and temperature not stated (as in ref 29); Kd from fraction bound = [Cascade]/(Kd+[Cascade])", "settings": "protein: recombinant; copies: 1;2;6;1;1; label: 5'-32P on DNA; guide / target / displaced; DNA blunt duplex"}, "[2]": {"target": "T1, Cascade (Type I-E crRNA-guided …)", "experiment": "EMSA; g8G-1T crRNA; EMSA with 32P-labelled dsDNA; buffer, salt, pH and temperature not stated (as in ref 29); Kd from fraction bound = [Cascade]/(Kd+[Cascade])", "settings": "protein: recombinant; copies: 1;2;6;1;1; label: 5'-32P on DNA; guide / target / displaced; DNA blunt duplex"}, "[3]": {"target": "T1, Cascade (Type I-E crRNA-guided …)", "experiment": "EMSA; WT crRNA; EMSA with 32P-labelled dsDNA; buffer, salt, pH and temperature not stated (as in ref 29); Kd from fraction bound = [Cascade]/(Kd+[Cascade])", "settings": "protein: recombinant, copies: 1;2;6;1;1, label: 5'-32P on DNA, DNA blunt duplex"}},
  "data": [
    {"binder": "g8C-2A crRNA + CTT PAM probe (mixed) RNA: AUAAACAGCUGUCUUUCGCUGCUGAGGGUGACGAUCCCGCGAGUUCCCCGCGCCAGCGGGG DNA 1: TTAAAGGCCGCTTTTGCGGGATCGTCACCCTCAGCAGCGAAAGACAGCTTCGGAACGAGGGTAGC DNA 2: GCTACCCTCGTTCCGAAGCTGTCTTTCGCTGCTGAGGGTGACGATCCCGCAAAAGCGGCCTTTAA", "values": [
      {"measurement": "Kd", "setting": "[1]", "result": "60 ± 12", "unit": "nM"}
    ]},
    {"binder": "g8G-1T crRNA + CTC PAM probe (mixed) RNA: AUAAACCUCUGUCUUUCGCUGCUGAGGGUGACGAUCCCGCGAGUUCCCCGCGCCAGCGGGG DNA 1: TTAAAGGCCGCTTTTGCGGGATCGTCACCCTCAGCAGCGAAAGACAGCTCCGGAACGAGGGTAGC DNA 2: GCTACCCTCGTTCCGGAGCTGTCTTTCGCTGCTGAGGGTGACGATCCCGCAAAAGCGGCCTTTAA", "values": [
      {"measurement": "binding result", "setting": "[2]", "result": "binds"}
    ]},
    {"binder": "g8G-1T crRNA + CCT PAM probe (mixed) RNA: AUAAACCUCUGUCUUUCGCUGCUGAGGGUGACGAUCCCGCGAGUUCCCCGCGCCAGCGGGG DNA 1: TTAAAGGCCGCTTTTGCGGGATCGTCACCCTCAGCAGCGAAAGACAGCCTCGGAACGAGGGTAGC DNA 2: GCTACCCTCGTTCCGAGGCTGTCTTTCGCTGCTGAGGGTGACGATCCCGCAAAAGCGGCCTTTAA", "values": [
      {"measurement": "binding result", "setting": "[2]", "result": "binds"}
    ]},
    {"binder": "g8G-1T crRNA + CAT PAM probe (mixed) RNA: AUAAACCUCUGUCUUUCGCUGCUGAGGGUGACGAUCCCGCGAGUUCCCCGCGCCAGCGGGG DNA 1: TTAAAGGCCGCTTTTGCGGGATCGTCACCCTCAGCAGCGAAAGACAGCATCGGAACGAGGGTAGC DNA 2: GCTACCCTCGTTCCGATGCTGTCTTTCGCTGCTGAGGGTGACGATCCCGCAAAAGCGGCCTTTAA", "values": [
      {"measurement": "binding result", "setting": "[2]", "result": "binds"}
    ]},
    {"binder": "WT g8 crRNA + CTT PAM (AAG) M13 probe (mixed) RNA: AUAAACCGCUGUCUUUCGCUGCUGAGGGUGACGAUCCCGCGAGUUCCCCGCGCCAGCGGGG DNA 1: TTAAAGGCCGCTTTTGCGGGATCGTCACCCTCAGCAGCGAAAGACAGCTTCGGAACGAGGGTAGC DNA 2: GCTACCCTCGTTCCGAAGCTGTCTTTCGCTGCTGAGGGTGACGATCCCGCAAAAGCGGCCTTTAA", "values": [
      {"measurement": "binding result", "setting": "[3]; guide / target / displaced", "result": "binds"}
    ]},
    {"binder": "g8G-1T crRNA + CTT PAM probe (mixed) RNA: AUAAACCUCUGUCUUUCGCUGCUGAGGGUGACGAUCCCGCGAGUUCCCCGCGCCAGCGGGG DNA 1: TTAAAGGCCGCTTTTGCGGGATCGTCACCCTCAGCAGCGAAAGACAGCTTCGGAACGAGGGTAGC DNA 2: GCTACCCTCGTTCCGAAGCTGTCTTTCGCTGCTGAGGGTGACGATCCCGCAAAAGCGGCCTTTAA", "values": [
      {"measurement": "binding result", "setting": "[2]", "result": "binds"}
    ]},
    {"binder": "WT g8 crRNA + CTC PAM (GAG) M13 probe (mixed) RNA: AUAAACCGCUGUCUUUCGCUGCUGAGGGUGACGAUCCCGCGAGUUCCCCGCGCCAGCGGGG DNA 1: TTAAAGGCCGCTTTTGCGGGATCGTCACCCTCAGCAGCGAAAGACAGCTCCGGAACGAGGGTAGC DNA 2: GCTACCCTCGTTCCGGAGCTGTCTTTCGCTGCTGAGGGTGACGATCCCGCAAAAGCGGCCTTTAA", "values": [
      {"measurement": "binding result", "setting": "[3]; guide / target / displaced", "result": "binds"}
    ]},
    {"binder": "WT g8 crRNA + CAT PAM (ATG) M13 probe (mixed) RNA: AUAAACCGCUGUCUUUCGCUGCUGAGGGUGACGAUCCCGCGAGUUCCCCGCGCCAGCGGGG DNA 1: TTAAAGGCCGCTTTTGCGGGATCGTCACCCTCAGCAGCGAAAGACAGCATCGGAACGAGGGTAGC DNA 2: GCTACCCTCGTTCCGATGCTGTCTTTCGCTGCTGAGGGTGACGATCCCGCAAAAGCGGCCTTTAA", "values": [
      {"measurement": "binding result", "setting": "[3]; guide RNA / target strand / displaced strand", "result": "binds"}
    ]},
    {"binder": "WT g8 crRNA + CCT PAM (AGG) M13 probe (mixed) RNA: AUAAACCGCUGUCUUUCGCUGCUGAGGGUGACGAUCCCGCGAGUUCCCCGCGCCAGCGGGG DNA 1: TTAAAGGCCGCTTTTGCGGGATCGTCACCCTCAGCAGCGAAAGACAGCCTCGGAACGAGGGTAGC DNA 2: GCTACCCTCGTTCCGAGGCTGTCTTTCGCTGCTGAGGGTGACGATCCCGCAAAAGCGGCCTTTAA", "values": [
      {"measurement": "binding result", "setting": "[3]; guide / target / displaced", "result": "binds"}
    ]}
  ]
}
